Reference: patent publication US20230257447A1 (published 2023)

T1: CMV phosphoprotein pp65 (SEQ 34) peptide on HLA-A*11:01 (human)
T1 peptide: ATVQGQNLK

B1: C45 (TCR, V domains shown)
Valpha: DQQVKQNSPSLSVQEGRISILNCDYTNSMFDYFLWYKKYPAEGPTFLISISSIKDKNEDGRFTVFLNKSAKHLSLHIVPSQPGDSAVYFCAASAWNTGNQFYFGTGTSLTVIP
Vbeta: KAGVTQTPRYLIKTRGQQVTLSCSPISGHRSVSWYQQTPGQGLQFLFEYFSETQRNKGNFPGRFSGRQFSNSRSEMNVSTLELGDSALYLCASSLAGYKQETQYFGPGTRLLVL
B2: C44 (TCR, V domains shown)
Valpha: AQTVTQSQPEMSVQEAETVTLSCTYDTSESDYYLFWYKQPPSRQMILVIRQEAYKQQNATENRFSVNFQKAAKSFSLKISDSQLGDAAMYFCAYRAFYTGANSKLTFGKGITLSVRP
Vbeta: DAGVTQSPTHLIKTRGQQVTLRCSPKSGHDTVSWYQQALGQGPQFIFQYYEEEERQRGNFPDRFSGHQFPNYSSELNVNALLLGDSALYLCASSFFRGEGNQPQHFGDGTRLSIL

Biological target: T1, CMV phosphoprotein pp65 (SEQ 34) …
Assay: multimer staining

Row | Binder | binding result
1 | B1 | recognises
2 | B2 | recognises
